From the Human Domainome abundance scans (Beltran et al. 2025)
± gives the uncertainty stated by the source.

B1: Max-interacting protein 1, residues 70 to 120; numbered along this chain, P50539 (parent)
chain: STHNELEKNRRAHLRLCLERLKVLIPLGPDCTRHTTLGLLNKAKAHIKKLE
B2: POU domain, class 2, transcription factor 2, residues 200 to 269; numbered along this chain, P09086 (parent)
chain: LEELEQFARTFKQRRIKLGFTQGDVGLAMGKLYGNDFSQTTISRFEALNLSFKNMCKLKPLLEKWLNDAE

Variants of: B1
Assay: abundance fitness (aPCA) (normalised: wild type 0, dead -1); higher = more abundant; growth selection in yeast, the domain comes from the species named
Details: Homo sapiens

Row | Variant | abundance fitness
1 | STHNELVKNRRAHLRLCLERLKVLIPLGPDCTRHTTLGLLNKAKAHIKKLE | -0.185 ± 0.092
2 | STHNELNKNRRAHLRLCLERLKVLIPLGPDCTRHTTLGLLNKAKAHIKKLE | 0.176 ± 0.24
3 | STHNELEKNRRAHLRLCLERLKVLIPLGPDCTRTTTLGLLNKAKAHIKKLE | -0.103 ± 0.11
4 | STHNELEKNRRAHWRLCLERLKVLIPLGPDCTRHTTLGLLNKAKAHIKKLE | 0.187 ± 0.091
5 | STHNELEKNRRAHPRLCLERLKVLIPLGPDCTRHTTLGLLNKAKAHIKKLE | -0.064 ± 0.12
6 | STHNELEKNRRAHLRLCLERLKVLIPLGNDCTRHTTLGLLNKAKAHIKKLE | -0.106 ± 0.2
7 | STHNELEVNRRAHLRLCLERLKVLIPLGPDCTRHTTLGLLNKAKAHIKKLE | -0.338 ± 0.095
8 | STHNELEKNRRAHLRLCLERLKVLIPLGPDCTRHTTLGLLNKAKAHIKGLE | -0.458 ± 0.091
9 | STHNEWEKNRRAHLRLCLERLKVLIPLGPDCTRHTTLGLLNKAKAHIKKLE | -0.566 ± 0.096
10 | STHNENEKNRRAHLRLCLERLKVLIPLGPDCTRHTTLGLLNKAKAHIKKLE | -0.329 ± 0.31
11 | STHNEYEKNRRAHLRLCLERLKVLIPLGPDCTRHTTLGLLNKAKAHIKKLE | -0.277 ± 0.31
12 | STHNELEKNRRAHLRLCLERLKVLIPLGPDCKRHTTLGLLNKAKAHIKKLE | -0.239 ± 0.12
13 | STHNELEKNRRAHLRLCLERLKVLIPLGPDCARHTTLGLLNKAKAHIKKLE | 0.163 ± 0.086
14 | STHNELEKNRRAHLRLCLERLKVLIPLGPDCYRHTTLGLLNKAKAHIKKLE | -0.174 ± 0.16
15 | STSNELEKNRRAHLRLCLERLKVLIPLGPDCTRHTTLGLLNKAKAHIKKLE | 0.065 ± 0.1
16 | CTHNELEKNRRAHLRLCLERLKVLIPLGPDCTRHTTLGLLNKAKAHIKKLE | -0.216 ± 0.17
17 | STHNELEKNRRAHLRLCLERLKVLIPLGPDMTRHTTLGLLNKAKAHIKKLE | -0.087 ± 0.12
18 | STHNELEKNRRAHLRLYLERLKVLIPLGPDCTRHTTLGLLNKAKAHIKKLE | -0.284 ± 0.14
19 | STHNELEKNRRAMLRLCLERLKVLIPLGPDCTRHTTLGLLNKAKAHIKKLE | -0.156 ± 0.12
20 | STHNELEKNRRAQLRLCLERLKVLIPLGPDCTRHTTLGLLNKAKAHIKKLE | -0.086 ± 0.12
21 | STHNELEKNRRACLRLCLERLKVLIPLGPDCTRHTTLGLLNKAKAHIKKLE | -0.509 ± 0.17
22 | STHNELEKNRRAHLRLCLERQKVLIPLGPDCTRHTTLGLLNKAKAHIKKLE | -0.495 ± 0.26
23 | STHNELEKNRRAHLRLCLERLKVLIPLGPDCTRHTTKGLLNKAKAHIKKLE | 0.073 ± 0.11
24 | STHNELEKNRRAHLRLCLERLKVLIPLGPDCTRHTTYGLLNKAKAHIKKLE | -0.172 ± 0.13

Variants of: B2
Assay: as above
Details: Homo sapiens

Row | Variant | abundance fitness
25 | LQELEQFARTFKQRRIKLGFTQGDVGLAMGKLYGNDFSQTTISRFEALNLSFKNMCKLKPLLEKWLNDAE | -0.171 ± 0.17
26 | LHELEQFARTFKQRRIKLGFTQGDVGLAMGKLYGNDFSQTTISRFEALNLSFKNMCKLKPLLEKWLNDAE | -0.366 ± 0.094
27 | LMELEQFARTFKQRRIKLGFTQGDVGLAMGKLYGNDFSQTTISRFEALNLSFKNMCKLKPLLEKWLNDAE | 0.173 ± 0.095
28 | LAELEQFARTFKQRRIKLGFTQGDVGLAMGKLYGNDFSQTTISRFEALNLSFKNMCKLKPLLEKWLNDAE | -0.14 ± 0.092
29 | LDELEQFARTFKQRRIKLGFTQGDVGLAMGKLYGNDFSQTTISRFEALNLSFKNMCKLKPLLEKWLNDAE | 0.054 ± 0.097
30 | LCELEQFARTFKQRRIKLGFTQGDVGLAMGKLYGNDFSQTTISRFEALNLSFKNMCKLKPLLEKWLNDAE | -0.699 ± 0.28
31 | LKELEQFARTFKQRRIKLGFTQGDVGLAMGKLYGNDFSQTTISRFEALNLSFKNMCKLKPLLEKWLNDAE | -0.02 ± 0.16
32 | LNELEQFARTFKQRRIKLGFTQGDVGLAMGKLYGNDFSQTTISRFEALNLSFKNMCKLKPLLEKWLNDAE | 0.259 ± 0.3
33 | LRELEQFARTFKQRRIKLGFTQGDVGLAMGKLYGNDFSQTTISRFEALNLSFKNMCKLKPLLEKWLNDAE | -0.066 ± 0.13
34 | LTELEQFARTFKQRRIKLGFTQGDVGLAMGKLYGNDFSQTTISRFEALNLSFKNMCKLKPLLEKWLNDAE | -0.274 ± 0.094
35 | LPELEQFARTFKQRRIKLGFTQGDVGLAMGKLYGNDFSQTTISRFEALNLSFKNMCKLKPLLEKWLNDAE | -0.689 ± 0.19
36 | LGELEQFARTFKQRRIKLGFTQGDVGLAMGKLYGNDFSQTTISRFEALNLSFKNMCKLKPLLEKWLNDAE | -0.046 ± 0.086
37 | GEELEQFARTFKQRRIKLGFTQGDVGLAMGKLYGNDFSQTTISRFEALNLSFKNMCKLKPLLEKWLNDAE | 0.01 ± 0.078
38 | REELEQFARTFKQRRIKLGFTQGDVGLAMGKLYGNDFSQTTISRFEALNLSFKNMCKLKPLLEKWLNDAE | -0.169 ± 0.086
39 | DEELEQFARTFKQRRIKLGFTQGDVGLAMGKLYGNDFSQTTISRFEALNLSFKNMCKLKPLLEKWLNDAE | -0.279 ± 0.19
40 | CEELEQFARTFKQRRIKLGFTQGDVGLAMGKLYGNDFSQTTISRFEALNLSFKNMCKLKPLLEKWLNDAE | -0.496 ± 0.34
41 | MEELEQFARTFKQRRIKLGFTQGDVGLAMGKLYGNDFSQTTISRFEALNLSFKNMCKLKPLLEKWLNDAE | -0.081 ± 0.094
42 | FEELEQFARTFKQRRIKLGFTQGDVGLAMGKLYGNDFSQTTISRFEALNLSFKNMCKLKPLLEKWLNDAE | -0.028 ± 0.13
43 | SEELEQFARTFKQRRIKLGFTQGDVGLAMGKLYGNDFSQTTISRFEALNLSFKNMCKLKPLLEKWLNDAE | -0.027 ± 0.12
44 | IEELEQFARTFKQRRIKLGFTQGDVGLAMGKLYGNDFSQTTISRFEALNLSFKNMCKLKPLLEKWLNDAE | -0.11 ± 0.46
45 | VEELEQFARTFKQRRIKLGFTQGDVGLAMGKLYGNDFSQTTISRFEALNLSFKNMCKLKPLLEKWLNDAE | -0.061 ± 0.073
46 | NEELEQFARTFKQRRIKLGFTQGDVGLAMGKLYGNDFSQTTISRFEALNLSFKNMCKLKPLLEKWLNDAE | 0.008 ± 0.21
47 | TEELEQFARTFKQRRIKLGFTQGDVGLAMGKLYGNDFSQTTISRFEALNLSFKNMCKLKPLLEKWLNDAE | 0.016 ± 0.18
48 | WEELEQFARTFKQRRIKLGFTQGDVGLAMGKLYGNDFSQTTISRFEALNLSFKNMCKLKPLLEKWLNDAE | -0.051 ± 0.087
